From US20230105029A1 (CHIA TAI TIANQING PHARMACEUTICAL GROUP, published 2023) come the findings set out here.

Substitutions are numbered along the chain they refer to.

B1: mouse antibody B8G11F2B7G5E8 (antibody, V domains shown)
VH: EVQLQQSGADLVRPGASVKLSCTASGFNIKDTYMHWVKQRPEQGLEWVGRIDPTNGYTIYASKFQGKATITADTSSNTAYMQLSSLTSGDTAVYHCVSRRPWFAYWGQGTLVTVSA
VL: DILMTQTPLSLPVSLGAQASISCRSSQSIVHSNGNTYLEWYLQKPGQSPKLLIYKVTNRFSGVPDRFSGSGSGTDFTLKISRVEAEDLGIYYCFQGSHVPYTFGGGTKLEIK
notes: Mouse hybridoma mAb; also called Mouse B8G11F2B7G5E8; mAb B8G11F2B7G5E8
B2: mouse antibody C2C1A1A1 (antibody, V domains shown)
VH: EVQLVESGGGLVQPGGSLKLSCAASGFTFSTYGMSWVRQTPDKRLELVATINSNGGSTSYPDSVKGRFTISRDNAKNTLYLQMSSLKSEDTAMFYCARFFRFRNAMDYWGQGTSVTVSS
VL: DIQMTQSPASLSASVGETVTITCRTSENIYSYLAWYQQKQGKSPQFLVYNAKTLAEGVPSRFSGSGSGTQFSLNINSLQSEDFGSYYCQHYYGPPTWTFGGGTKLEIK
notes: Mouse hybridoma mAb; also called Mouse C2C1A1A1
B3: mouse antibody C2B2F7B7 (antibody, V domains shown)
VH: B2 VH with S59N, F94Y, F102I
VL: B2 VL with T25A, N74K, S80P, P94T
notes: Mouse hybridoma mAb
B4: mouse antibody B1D2F7D3B5 (antibody, V domains shown)
VH: EVKLVESGGGLVKPGGSLKLSCAASGFTFSSYAMSWVRQTPEKRLEWVASISSGDSTYYLDSVKGRFTISRDNAMNILYLQMSSLRSEDTAVYYCERSGGSAPYWGQGTLVSVSA
VL: QIVLTQSPAIMSASPGEMVTISCSASSSVSYMYWYQQKPGSSPKPWIYRTSNLASGVPARFSGSGSGTSYSLTISSMEAEDAATYYCQQYHSFPLTFGAGTKLELK
notes: Mouse hybridoma mAb
B5: mouse antibody B9D1D11F8D8 (antibody, V domains shown)
VH: B4 VH with M75R, M82V, V92M, S112T
VL: B4 VL with E17D, S30N
notes: Mouse hybridoma mAb
B6: chimeric antibody B8G11F2B7G5E8 (antibody, human IgG4 S228P, kappa, V domains shown)
VH: B1 VH
VL: DILMTQTPLSLPVSLGAQASISCRSSQSIVHSNGNTYLEWYLQKPGQSPKLLIYKVTNRFSGVPDRFSGSGSGTDFTLKISRVEAEDLGIYYCFQGSHVPYTFGGGTKLEIKR
notes: Mouse variable domains on human IgG4/kappa; also called Chimeric B8G11F2B7G5E8; chB8G11F2B7G5E8
B7: chimeric antibody C2C1A1A1 (antibody, human IgG4 S228P, kappa, V domains shown)
VH: B2 VH
VL: DIQMTQSPASLSASVGETVTITCRTSENIYSYLAWYQQKQGKSPQFLVYNAKTLAEGVPSRFSGSGSGTQFSLNINSLQSEDFGSYYCQHYYGPPTWTFGGGTKLEIKR
notes: Mouse variable domains on human IgG4/kappa; also called Chimeric C2C1A1A1; chC2C1A1A1

The first experiment concerns the target T1, human IL4Rα expressed on HEK293T-IL4Rα-STAT6-STAT6LUC-LB2 cells (human, UniProt P24394 26-825). The experiment in a line: cell-based or functional assay.
Turning to B1, the “Inhibition on IL4 induced STAT6 phosphorylation (IC50, nM)” value worked out at 0.23 nM and the “Inhibition on IL13 induced STAT6 phosphorylation (IC50, nM)” value turned out to be 0.47 nM.

B2: the “Inhibition on IL4 induced STAT6 phosphorylation (IC50, nM)” value turned out to be 0.16 nM and the “Inhibition on IL13 induced STAT6 phosphorylation (IC50, nM)” value came to 0.23 nM.

For B3, the “Inhibition on IL4 induced STAT6 phosphorylation (IC50, nM)” value was found to be 0.17 nM and the “Inhibition on IL13 induced STAT6 phosphorylation (IC50, nM)” value amounted to 0.31 nM.

In the case of B4, the “Inhibition on IL4 induced STAT6 phosphorylation (IC50, nM)” value is 0.17 nM and the “Inhibition on IL13 induced STAT6 phosphorylation (IC50, nM)” value turned out to be 0.48 nM.

Consider B5, for which the “Inhibition on IL4 induced STAT6 phosphorylation (IC50, nM)” value turned out to be 0.23 nM and the “Inhibition on IL13 induced STAT6 phosphorylation (IC50, nM)” value worked out at 0.36 nM.

Another experiment concerns the target T1, human IL4Rα expressed on …. The experiment in a line: cell-based or functional assay. The source holds these as a separate data set.
Turning to B1, the “Inhibition on IL4 induced STAT6 phosphorylation (IC50, nM)” value was determined as 0.26 nM and the “Inhibition on IL13 induced STAT6 phosphorylation (IC50, nM)” value stood at 0.6 nM.

Regarding B6, the “Inhibition on IL4 induced STAT6 phosphorylation (IC50, nM)” value stood at 0.26 nM and the “Inhibition on IL13 induced STAT6 phosphorylation (IC50, nM)” value came to 0.76 nM.

With B2, the “Inhibition on IL4 induced STAT6 phosphorylation (IC50, nM)” value is 0.19 nM and the “Inhibition on IL13 induced STAT6 phosphorylation (IC50, nM)” value came to 0.27 nM.

As for B7, the “Inhibition on IL4 induced STAT6 phosphorylation (IC50, nM)” value came to 0.27 nM and the “Inhibition on IL13 induced STAT6 phosphorylation (IC50, nM)” value was determined as 0.56 nM.

The target in a further experiment is T2, human IL4Rα expressed on 293F-IL4Rα cells (human, UniProt P24394 26-825).
T2 construct: whole, on cells; also called cell surface human IL4Rα
The experiment in a line: flow cytometry, 293F-IL4Rα cells. Here is the method: (§1) Then, 2×10⁵ cells per well in 96 well-plates were incubated in 100 μL of the anti-IL4Rα antibodies or controls of various concentrations (starting at 80 nM with a 4-fold serial dilution) in FACS buffer for 40 minutes on ice. […] Following an incubation of 40 minutes at 4° C. in dark, cells were washed three times and resuspended in FACS buffer. Fluorescence was measured using a Becton Dickinson FACS Canto II-HTS equipment. Data was analyzed using Graphpad Prism software and EC₅₀ values were reported.
For B1, it took 0.25 nM to reach a half-maximal effect (EC50).

Regarding B2, a half-maximal response (EC50) required 0.16 nM.

The molecule B3 had a 50% effective concentration (EC50) of 0.18 nM.

B4 came in with a concentration giving a half-maximal response (EC50) of 0.25 nM.

On to B5, for which the response was half-maximal at 0.22 nM (EC50).

In another experiment the target is T3, cynomolgus monkey IL4Rα-his protein (cynomolgus monkey, UniProt A0A2K5V580 33-239).
T3 construct: Bought protein; also called Cynomolgus IL4Rα; Cyno-IL4Rα-his; not shown: his tag
Kind of experiment: indirect ELISA, coated cyno IL4Rα-his. How it is done:
The anti-IL4Rα antibodies' cross-reaction with cynomolgus IL4Rα proteins or cal-IL4Rα-his proteins were measured. Briefly, 96-well micro plates were coated with 2 μg/ml cynomolgus IL4Rα-his protein (Sino biological inc., Cat #90897—C08H) or 0.2 μg/ml cal-IL4Rα-his protein (Custom made by Sino biological inc., Cat #BAX2) in carbonate/bicarbonate buffer (pH 9.6), 100 μl/well, for 2 hours at 37° C. ELISA plates were washed once with wash buffer (PBS+0.05% w/v Tween-20, PBST) and then blocked with 200 μl/well blocking buffer (5% w/v non-fatty milk in PBST) for 2 hours at 37° C. Plates were washed again and incubated with 100 μl/well serially diluted anti-IL4Rα antibodies of the disclosure or controls (0.004-66.7 nM, 5-fold serial dilution in 2.5% w/v non-fatty milk in PBST, starting at 66.7 nM) for 40 minutes at 37° C. […] After a final wash, plates were incubated with 100 μl/well TMB (Innoreagents). The reaction was stopped 3-10 minutes later at 25° C. with 50 μl/well 1M H₂SO₄, and the absorbance was read at 450 nm. Data was analyzed using Graphpad Prism software and EC₅₀ values were reported.
For orientation: An ELISA detects its analyte on a solid surface through an enzyme-linked reagent.
The molecule B1 yielded an EC50 of 0.29 nM.

Molecule B2 came in with an EC50 of 0.33 nM.

Molecule B3 displayed a half-maximal effective concentration (EC50) of 108 nM.

Consider B4, for which the binding result is listed as “no binding (tested: 66.7 nM (highest concentration tested))”.

B5: the binding result was “no binding (tested: 66.7 nM (highest concentration tested))”.

The target of another experiment is T2, human IL4Rα expressed on 293F-IL4Rα …. Kind of experiment: flow cytometry on 293F-IL4Rα cells. How it is done: as §1
Turning to B1, the midpoint of the response, the EC50, lay at 0.251 nM.

In turn, B2 came in with an EC50 of 0.159 nM.

With B3, the concentration for a half-maximal effect (EC50) amounted to 0.183 nM.

Consider B4, for which a half-maximal effect (EC50) was put at 0.246 nM.

In turn, B5 showed an EC50 of 0.221 nM.

The next experiment shares this target. Kind of experiment: flow cytometry, blocks biotin-IL4 binding to 293F-IL4Rα cells. Here is the method:
(§2) Then, 1×10⁵ cells per well in 96 well-plates were incubated in 100 μL of the anti-IL4Rα antibodies or controls of various concentrations (starting at 80 nM with a 4-fold serial dilution) in FACS buffer for 40 minutes on ice. The plates were washed twice with FACS buffer, and added and incubated for 40 minutes at 4° C. in dark with 100 μl/well 1.67 nM biotin-labeled human IL4 protein (Sino biological inc., Cat #11846-HNAE). The plates were washed twice with FACS buffer, and then added and incubated for 40 minutes at 4° C. in dark with 100 μl/well R-Phycoerythrin Streptavidin (1:500 dilution in FACS buffer, Jackson Immunoresearch, Cat #016-110-084). Cells were washed twice and resuspended in FACS buffer. Fluorescence was measured using a Becton Dickinson FACS Canto II-HTS equipment. Data was analyzed using Graphpad Prism software and IC₅₀ values were reported.
B1 came in with an IC50 of 0.8 nM.

In turn, B2 registered a half-inhibitory concentration (IC50) of 0.44 nM.

In turn, B3 came in with an IC50 of 0.4 nM.

With B4, the half-inhibitory concentration (IC50) was 0.78 nM.

The molecule B5 displayed a 50% inhibitory concentration (IC50) of 0.75 nM.

Another experiment shares this target. The experiment is described as above. This is another data set of the same source. Here is the method: as §2
B1 displayed a 50% inhibitory concentration (IC50) of 0.5 nM.

Regarding B6, the IC50 worked out at 0.36 nM.

Take B7: the half-maximal inhibitory concentration (IC50) amounted to 0.48 nM.

A further experiment deals with T4, recombinant human IL4Rα-his protein (in house made) (human, UniProt P24394 26-232, limits assumed).
T4 construct: also called Human IL4Ra-his
The experiment in a line: competitive ELISA, blocks biotin-IL4 binding to coated IL4Rα-his.
For the molecule B1, the IC50 came out at 1.64 nM.

For the molecule B6, the IC50 is 1.82 nM.

For B2, the 50% inhibitory concentration (IC50) was 1.89 nM.

For the molecule B7, the concentration for half-maximal inhibition (IC50) was 3.12 nM.

The target in another experiment is T2, human IL4Rα expressed on 293F-IL4Rα …. The experiment in a line: flow cytometry on 293F-IL4Rα cells, blocked ligand biotin human IL4. How it is done: as §2
For orientation: A flow cytometer gives signals particle by particle.
B1 showed an IC50 of 0.804 nM.

Turning to B2, the IC50 amounted to 0.44 nM.

On to B3, for which half-maximal inhibition (IC50) required 0.397 nM.

Molecule B4 gave an IC50 of 0.787 nM.

As for B5, it took 0.748 nM to reach half-maximal inhibition (IC50).

A further experiment addresses T4, recombinant human IL4Rα-his protein (in …). The experiment in a line: competitive ELISA, blocks biotin-IL4Rα-his binding to coated Benchmark (competitor). Here is the method:
The ability of the anti-IL4Rα antibodies of the disclosure to block benchmark-human IL4Rα binding was measured in a competitive ELISA assay. Briefly, the benchmark was coated on 96-well micro plates at 2 μg/mL in PBS, 100 μl per well, and incubated overnight at 4° C. The next day, plates were washed with wash buffer (PBS+0.05% w/v Tween-20, PBST), and blocked with 5% w/v non-fatty milk in PBST for 2 hours at 37° C. tiring plate blocking, the anti-IL4Rα antibodies of the disclosure or controls were diluted with biotin labeled human IL4Rα-his proteins (prepared in-house with SEQ ID NO: 57, 0.55 nM in 2.5% w/v non-fatty milk in PBST), starting at 100 nM with a 4-fold serial dilution, and incubated at 25° C. for 40 minutes. After plate washing, the antibody/IL4Rα-his mixtures were added to benchmark coated plates, 100 μl per well. After incubation at 37° C. for 40 minutes, plates were washed using wash buffer. Then the plates were added and incubated with 100 μl/well streptavidin conjugated HRP for 40 minutes at 37° C. to detect biotin-labeled human IL4Rα-his bound to plates. Plates were washed again using wash buffer. Finally, TMB was added and the reaction was stopped using 1M H₂SO₄, and the absorbance was read at 450 nm. Data was analyzed using Graphpad Prism software and IC₅₀ values were reported.
For B1, the half-maximal inhibitory concentration (IC50) was found to be 0.02 nM.

For B6, the half-maximal inhibitory concentration (IC50) amounted to 1.52 nM.

For B2, the half-maximal inhibitory concentration (IC50) worked out at 0.04 nM.

Take B7: the IC50 is 0.17 nM.

Turning to B3, the IC50 turned out to be 0.72 nM.

For B4, the IC50 was 0.02 nM.

In the case of B5, the IC50 came to 0.02 nM.

For the next experiment the target is unchanged. Kind of experiment: competitive ELISA: coated human IL4Rα-his, blocked ligand biotin human IL4.
On to B1, for which the half-maximal inhibitory concentration (IC50) was found to be 1.64 nM.

B6: the half-inhibitory concentration (IC50) stood at 1.82 nM.

B2: the IC50 came out at 1.89 nM.

For B7, the concentration for half-maximal inhibition (IC50) was determined as 3.12 nM.

What is called EC50 is the concentration giving half of the maximal effect. A word on the IC50: it is the midpoint of a concentration-inhibition curve.
